# In patent publication US6713057B1, “Compositions and methods for modulating serum cholesterol” (The Johns Hopkins University, priority 1999, dated 2004):
# Tested on: SREBP-1
# Assay: SREBP-1 proteolysis (maturation) assay, Western immunoblot of nuclear fractions, HH-25 hepatocytes
# Type: cell-based, human
# Details: HH-25 hepatocytes, sterol independent
# Protocol: FIGS. 2A-2C illustrate effects of TNF-α sphingomyelinase and C2-ceramide on the kinetics of SREBP-1 maturation—FIGS. 2A-2C is explained in more detail as follows: Cells were maintained in media supplemented with 1 μg/ml 25-hydroxy cholesterol and 15 μg/ml cholesterol for 24 hours before the experiment. The cells were treated for the indicated time as described in materials and methods. The cells were then harvested in PBS, pelleted and frozen. Lysis and nuclear fractionation were performed as described. Nuclear fractions (50 μg of protein) were electrophoresed on a 7.5% polyacrylamide gel and transferred to a PVDF membrane. Western blotting was performed as described. Band intensity was quantified via densitometry. Error bars represent ±one standard deviation from the mean. 2A) The kinetics of SREBP maturation as measured by the increase in mature SREBP-1 are plotted. Fold increase was calculated by comparing each time point to the corresponding control value (TNF-α is represented by stippled bars, bacterial sphingomyelinase is represented by light gray bars and C2-ceramide by the dark bars.) 2B) Cells were treated with TNF-α (10 ng/ml) and prepared as described above. The bands corresponding to the precursor and mature forms of SREBP-1 were quantified and their ratio plotted. 2C) Representative Western blots from which numerical data was derived. […]
molecule,measurement,value
"EGF: human recombinant EGF from Upstate Biotechnology (protein, UniProt P01133 23-1207, looked up, Pro-epidermal growth factor, human recombinant EGF from Upstate Biotechnology) Pro-epidermal growth factor: PQHWSCPEGTLAGNGNSTCVGPAPFLIFSHGNSIFRIDTEGTNYEQLVVDAGVSVIMDFHYNEKRIYWVDLERQLLQRVFLNGSRQERVCNIEKNVSGMAINWINEEVIWSNQQEGIITVTDMKGNNSHILLSALKYPANVAVDPVERFIFWSSEVAGSLYRADLDGVGVKALLETSEKITAVSLDVLDKRLFWIQYNREGSNSLICSCDYDGGSVHISKHPTQHNLFAMSLFGDRIFYSTWKMKTIWIANKHTGKDMVRINLHSSFVPLGELKVVHPLAQPKAEDDTWEPEQKLCKLRKGNCSSTVCGQDLQSHLCMCAEGYALSRDRKYCEDVNECAFWNHGCTLGCKNTPGSYYCTCPVGFVLLPDGKRCHQLVSCPRNVSECSHDCVLTSEGPLCFCPEGSVLERDGKTCSGCSSPDNGGCSQLCVPLSPVSWECDCFPGYDLQLDEKSCAASGPQPFLLFANSQDIRHMHFDGTDYGTLLSQQMGMVYALDHDPVENKIYFAHTALKWIERANMDGSQRERLIEEGVDVPEGLAVDWIGRRFYWTDRGKSLIGRSDLNGKRSKIITKENISQPRGIAVHPMAKRLFWTDTGINPRIESSSLQGLGRLVIASSDLIWPSGITIDFLTDKLYWCDAKQSVIEMANLDGSKRRRLTQNDVGHPFAVAVFEDYVWFSDWAMPSVMRVNKRTGKDRVRLQGSMLKPSSLVVVHPLAKPGADPCLYQNGGCEHICKKRLGTAWCSCREGFMKASDGKTCLALDGHQLLAGGEVDLKNQVTPLDILSKTRVSEDNITESQHMLVAEIMVSDQDDCAPVGCSMYARCISEGEDATCQCLKGFAGDGKLCSDIDECEMGVPVCPPASSKCINTEGGYVCRCSEGYQGDGIHCLDIDECQLGEHSCGENASCTNTEGGYTCMCAGRLSEPGLICPDSTPPPHLREDDHHYSVRNSDSECPLSHDGYCLHDGVCMYIEALDKYACNCVVGYIGERCQYRDLKWWELRHAGHGQQQKVIVVAVCVVVLVMLLLLSLWGAHYYRTQKLLSKNPKNPYEESSRDVRSRRPADTEDGMSSCPQPWFVVIKEHQDLKNGGQPVAGEDGQAADGSMQPTSWRQEPQLCGMGTEQGCWIPVSSDKGSCPQVMERSFHMPSYGTQTLEGGVEKPHSLLSANPLWQQRALDPPHQMELTQ","induction of SREBP-1 maturation (increase in mature SREBP-1), in words",could not be recapitulated
